The results in this text go back to patent US20200283528A1 (NUMAB THERAPEUTICS, published 2020).

Changes are numbered by the printed parent chain. Some results are limits rather than exact numbers.

For experiment [1], the target named is T1, human PDL1 expressed on cells (human, UniProt Q9NZQ7 19-290). As to the kind of experiment: cell-based or functional assay.
The target of experiment [2] is T1, human PDL1 expressed on cells. Description: cell-based or functional assay. This is another data set of the same source.
The target is the same in experiment [3]. As to the kind of experiment: cell-based or functional assay. This is another data set of the same source.
Experiment [4] has the same target. Description: cell-based or functional assay. This is another data set of the same source.
The target of experiment [5] is T2, Fc tagged human PDL1 (human, UniProt Q9NZQ7 19-238).
T2 construct: also called PDL1-Fc chimeric protein (human); not shown: Fc tag
As to the kind of experiment: SPR Biacore T200; PDL1-Fc captured. Here is the method:
(§1) An antibody specific for the Fc region of human IgGs was immobilized on a sensor chip (CM5 sensor chip, GE Healthcare) by amine-coupling. […] After each injection cycle, surfaces were regenerated with one injection of a 3 M MgCl₂ solution. The apparent dissociation (kd) and association (kₐ) rate constants and the apparent dissociation equilibrium constant (KD) were calculated using one-to-one Langmuir binding model.
(In general: SPR reads the build-up and loss of mass on a sensor chip optically.)

Experiment [6] concerns the target T3, human PDL1 (recombinant, soluble) (human, UniProt Q9NZQ7 19-238).
T3 construct: also called hPDL1; hPD-L1
Description: PDL1/PD-1 competition ELISA; PD-1 coated; scFv. As to the method: (§2) ELISA plates were coated by adding 50 μl of PBS containing 4 μg/ml PD-1 overnight at 4° C. Next day, plates were washed three times in overflow mode with 450 μl wash buffer (PBS, 0.005% Tween 20) per wells and 300 μl of blocking buffer (PBS, 1% BSA, 0.2% Tween 20) were added to each well for 1 h at RT on a nutating mixer. […] ELISA pates were washed 3 times in overflow mode with 450 μl wash buffer and two times 50 μl of each dilution was added in adjacent wells of the ELISA plates in order to generate duplicates. Plates were incubated 90 minutes at RT under gentle agitation. After three washes with 450 μl of washing buffer, 50 μl of 10 ng/ml streptavidin-polyHRP40 were added to each wells of the ELISA plates. After 1 h incubation at RT, plates were washed three times with 450 μl wash buffer and developed for 5 to 10 minutes after addition of 50 μl TMB. Finally, the enzymatic reaction was stopped by addition of 50 μl of 1 M HCl and plate was read at 450 nm using 690 nm as a reference wavelength.

Experiment [7] deals with T3, human PDL1 (recombinant, soluble). As to the kind of experiment: PDL1/B7-1 competition ELISA; B7-1 coated; scFv. As to the method:
as §2, with “μg/ml B7-1” for “μg/ml PD-1”, “of” for “of 10 ng/ml”, “streptavidin-polyHRP40 was” for “streptavidin-polyHRP40 were”, “ELISA plate.” for “ELISA plates.”
(ELISA stands for enzyme-linked immunosorbent assay.)

The target of experiment [8] is T2, Fc tagged human PDL1. Description: SPR Biacore T200; PDL1-Fc captured; molecule 0.12-90 nM. Here is the method:
as §1

Experiment [9] addresses T2, Fc tagged human PDL1. As to the kind of experiment: SPR Biacore T200; Fc tagged PDL1 captured; scFv 0.12-30 nM. As to the method: (§3) After each analyte injection cycle, the CM5 sensor chip was regenerated and new antigen was captured. The scFvs were injected as analyte using a dose response multicycle kinetic assay with concentrations of the analyte ranging from 0.12 to 30 nM diluted in running buffer for 5 min and dissociation of the protein was allowed to proceed for 12 min. Obtained sensorgrams were fitted using the 1:1 binding model.

Experiment [10] has as its target T3, human PDL1 (recombinant, soluble). As to the kind of experiment: PDL1/PD-1 competition ELISA; PD-1 coated, biotinylated PDL1 1 ng/ml. As to the method:
(§4) ELISA microplates coated overnight at 4° C. with 4 μg/ml human PD-1 were washed three times with 450 μl wash buffer per well. Plates were blocked for 1 hour at room temperature by adding 300 μl of PBS with 1% BSA and 0.2% tween (dilution buffer) to each well. […] The mixtures were pre-incubated for 1 hour at room temperature under gentle agitation on a rotating mixer (21 rpm) and added to the microplates after 3 wash cycles with 450 μl wash buffer per well. Plates were incubated for 1.5 hours at room temperature under gentle agitation, then 10 ng/ml streptavidin-polyHRP40 was added to each microplate well after three washes with 450 μl of wash buffer per well. After 1 h incubation at RT, plates were washed three times with 450 μl wash buffer and TMB substrate solution was added. The enzymatic reaction was stopped after 6 minutes by addition of 1 M HCl and absorbance was measured at 450 nm using 690 nm as a reference wavelength. For calculation of IC₅₀ values, a four-parameter logistic (4PL) curve fit was performed in Graph Pad Prism using reference subtracted values.

For experiment [11] the target is unchanged. As to the kind of experiment: PDL1/B7-1 competition ELISA; B7-1 coated, biotinylated PDL1 40 ng/ml. As to the method:
as §4, with “B7-1” for “PD-1”

For experiment [12], the target named is cynomolgus PDL1, recombinant (Sino Biological) / PDL1-Fc chimeric protein (cynomolgus (Macaca fascicularis), UniProt G7PSE7 19-238). As to the kind of experiment: SPR Biacore T200; cynomolgus PDL1 (Sino Biological) captured; scFv as analyte. Here is the method: as §3
cynomolgus PDL1, recombinant (Sino Biological) / PDL1-Fc chimeric protein, sequence (G7PSE7 entry or part of it mutant limits assumed): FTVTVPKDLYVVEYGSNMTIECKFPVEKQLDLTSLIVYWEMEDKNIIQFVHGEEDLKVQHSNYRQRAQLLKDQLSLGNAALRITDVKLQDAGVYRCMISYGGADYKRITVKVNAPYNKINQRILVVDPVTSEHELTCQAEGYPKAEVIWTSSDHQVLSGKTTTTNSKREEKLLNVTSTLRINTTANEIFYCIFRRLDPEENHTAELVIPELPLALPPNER
A further experiment addresses T4, Fc tagged human PDL2 (human, UniProt Q9BQ51 20-219).
T4 construct: not shown: Fc tag
T4 sequence (looked up): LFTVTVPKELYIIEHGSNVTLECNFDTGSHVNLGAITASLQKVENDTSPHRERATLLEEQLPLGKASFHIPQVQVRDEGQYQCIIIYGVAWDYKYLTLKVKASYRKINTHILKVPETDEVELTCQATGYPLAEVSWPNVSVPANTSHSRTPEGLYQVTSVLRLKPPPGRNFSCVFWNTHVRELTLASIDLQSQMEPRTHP
As to the kind of experiment: SPR Biacore T200; Fc tagged human PDL2 captured; scFv as analyte. Here is the method:
Humanized scFvs were tested for binding to PDL2 by SPR analysis on a T200 device (Biacore, GE Healthcare). In this experiment, Fc tagged human PDL2 was captured using the Human Antibody Capture kit from GE healthcare. After each analyte injection cycle the CM5 sensor chip was regenerated and new antigen was captured. The scFvs were injected as analyte at a concentration of 180 nM diluted in running buffer for 5 min and dissociation of the protein was allowed to proceed for 12 min.

Experiment [13] addresses T1, human PDL1 expressed on cells. As to the kind of experiment: flow cytometry on CHO-PDL1 cells; scFv detected by APC labelled protein-L. (A flow cytometer gives signals particle by particle.)

B1: PRO997/PRO908 (37-20-B03-sc01 scFv) (scFv)
scFv: DIQMTQSPSSLSASVGDRVTITCQASQSIGTYLAWYQQKPGKAPKLLIYRAFILASGVPSRFSGSGSGTDFTLTISSLQPEDFATYYCQSNFYSDSTTIGPNAFGTGTKVTVLGGGGGSGGGGSGGGGSGGGGSQVQLQESGPGLVKPSETLSLTCKVSGFSFNSDYWIYWIRQPPGKGLEWIGSIYGGSSGNTQYASWAQGRVTISVDSSKNQFSLKLSSVTAADTAVYYCARGYVDYGGATDLWGQGTLVTVSS
notes: VL-linker-VH, VH4 CDR graft; PRO997 was made in CHO-S cells, PRO908 in bacteria; also called 37-20-B03 CDR
In the case of B1, in [1], the “NFAT reporter gene assay, fold potency of VH4 graft (PRO997) against VH1 graft (PRO1013)” value is around 2 fold. Besides, in experiment [2], the “reporter gene assay IC50” value was 8.02 ng/mL and the “reporter gene assay Maximum Inhibition (%)” value was 95.3%. The “NF-AT potency assay IC50” value in [3] amounted to 11.1 ng/mL. Besides, the “IL-2 secretion of SEA stimulated PBMC, EC50 in ng/ml” value in experiment [4] stood at 40.9 ng/mL. For the same molecule, the “fold higher affinity against the STR graft of clone 33-03-G02” value with Fc tagged human PDL1 [5] was around 2 fold. In addition, in [6], the half-inhibitory concentration (IC50) turned out to be 0.33 ng/mL and the “Maximum Inhibition (%)” value stood at 100%. In addition, in experiment [7], the 50% inhibitory concentration (IC50) is 1.21 ng/mL and the “Maximum Inhibition (%)” value turned out to be 93.1%. For the same molecule, the equilibrium dissociation constant (Kd) with Fc tagged human PDL1 [8] is 1.7 pM. In the experiment with Fc tagged human PDL1 [9], this molecule displayed a Kd of 5.94 pM, an off-rate constant (koff) of 4.02e-05 s⁻¹ and a kon of 6.76e+06 M⁻¹ s⁻¹. The IC50 in experiment [10] was found to be 0.5 ng/mL. In addition, the IC50 in [11] came to 6.36 ng/mL. Also, in experiment [12], the “KD, cyno/KD, human” value was below 0.28; the equilibrium dissociation constant (Kd) is below 1.68 pM; the kon stood at 5.96e+06 M⁻¹ s⁻¹.

B2: PRO1392 (33-03-G02-sc18 scFv) (scFv)
scFv: DIQMTQSPSSLSASVGDRVTITCQASQSINDYLAWYQQKPGKAPKLLIYKASTLASGVPSRFSGSGSGTDFTLTISSLQPEDFATYYCQQGYIITDIDNVFGTGTKVTVLGGGGGSGGGGSGGGGSGGGGSQVQLQESGPGLVKPSETLSLTCKASGFSFSSGYDMCWVRQPPGKGLEWIACVVAGSVDITYYASWAKGRVTISKDSSKNQVSLKLSSVTAADTAVYYCARKDAYSDAFNLWGQGTLVTVSS
As for B2, in experiment [2], the “reporter gene assay IC50” value was 12 ng/mL and the “reporter gene assay Maximum Inhibition (%)” value turned out to be 96.7%. In [6], the IC50 was 0.47 ng/mL and the “Maximum Inhibition (%)” value was 99.9%. Also, in experiment [7], the IC50 was 1.19 ng/mL and the “Maximum Inhibition (%)” value was found to be 93.2%. In the experiment with Fc tagged human PDL1 [9], this molecule gave a Kd of 9.94 pM, a koff of 6.16e-05 s⁻¹ and an on-rate (kon) of 6.19e+06 M⁻¹ s⁻¹. In the experiment with Fc tagged human PDL2, the binding result is recorded as “no binding (tested: 180 nM)”. Besides, in experiment [12], the “KD, cyno/KD, human” value was 2; the Kd is 19.9 pM; the koff came to 8.87e-05 s⁻¹; the kon was determined as 4.45e+06 M⁻¹ s⁻¹.

B3: PRO830 (33-03-G02-sc01 scFv) (scFv)
scFv: B2 scFv with A155V, V169I, A181G, K205V, V212F
notes: also called 33-03-G02 CDR
In the case of B3, in [2], the “reporter gene assay IC50” value was determined as 37.5 ng/mL and the “reporter gene assay Maximum Inhibition (%)” value was found to be 105%. For the same molecule, the “NF-AT potency assay IC50” value in experiment [3] amounted to 42.9 ng/mL. In [6], the 50% inhibitory concentration (IC50) came out at 3.45 ng/mL and the “Maximum Inhibition (%)” value was determined as 99.8%. Also, in experiment [7], the IC50 turned out to be 6.11 ng/mL and the “Maximum Inhibition (%)” value is 94.5%. Further, the koff with Fc tagged human PDL1 [9] turned out to be 0.000159 s⁻¹. The IC50 in [10] is 3.4 ng/mL. Further, in [11], the IC50 amounted to 12.9 ng/mL. Besides, in experiment [13], the EC50 is 20.2 ng/mL. Further, in experiment [12], the “KD, cyno/KD, human” value was 0.97; the equilibrium dissociation constant (Kd) amounted to 74 pM; the koff stood at 0.000182 s⁻¹; the kon came out at 2.46e+06 M⁻¹ s⁻¹.

B4: PRO1183 (33-03-G02-sc03 scFv) (scFv)
scFv: B2 scFv with I2F, M4L, A43S, V133S, Y228F
notes: also called 33_03_G02 sc03 Full
With B4, in [2], the “reporter gene assay IC50” value is 9.98 ng/mL and the “reporter gene assay Maximum Inhibition (%)” value turned out to be 102%. Also, in [6], the 50% inhibitory concentration (IC50) worked out at 0.36 ng/mL and the “Maximum Inhibition (%)” value stood at 99.8%. Also, in [7], the half-inhibitory concentration (IC50) came out at 0.977 ng/mL and the “Maximum Inhibition (%)” value was determined as 95.4%. For the same molecule, in the experiment with Fc tagged human PDL1 [9], the Kd was below 2.1 pM, the off-rate (koff) was below 1e-05 s⁻¹ and the kon is 4.77e+06 M⁻¹ s⁻¹. In addition, the binding result with Fc tagged human PDL2 is given as “no binding (tested: 180 nM)”. Besides, in [12], the “KD, cyno/KD, human” value is below 5.58; the dissociation constant (Kd) worked out at 11.7 pM; the koff is 1.82e-05 s⁻¹; the kon came to 1.55e+06 M⁻¹ s⁻¹.

Usually IC50 stands for the concentration at which inhibition is half-maximal. As usually defined, the Kd is the equilibrium constant for the complex coming apart. In general, koff refers to the first-order rate constant of dissociation. For orientation: kon means a measure of how fast the partners come together. As a reminder, the EC50 is the midpoint of the concentration-response curve. Lower therefore signals an effect from little substance.
